# Test results reported in publication PMC11246345.
# How the values were obtained:
# VEGF-A 165 = assay: ELISA
# VEGF-A 189 = assay: ELISA
substance,measurement,setting,value
US-aflibercept (Fc fusion),%relative binding activity (against a reference standard),VEGF-A 165,97%
same,%relative binding activity (against a reference standard),VEGF-A 189,97%
